Sequences and labels used below:
B1: Receptor-interacting serine/threonine-protein kinase 2, residues 438 to 518; numbered along this chain, O43353 (parent)
chain: QWIQSKREDIVNQMTEACLNQSLDALLSRDLIMKEDYELVSTKPTRTSKVRQLLDTTDIQGEEFAKVIVQKLKDNKQMGLQ

± gives the uncertainty stated by the source.

The variants in the data set derive from B1. In words: abundance fitness (aPCA) (normalised: wild type 0, dead -1); higher = more abundant; growth selection in yeast, the domain comes from the species named. As to conditions: Homo sapiens.
As to QWIQSKREDIVNQMTEACLNQSLDALLSRDLIMKEDYEMVSTKPTRTSKVRQLLDTTDIQGEEFAKVIVQKLKDNKQMGLQ, the abundance fitness is -0.218 ± 0.23. With QWIQSKREDIVNQMTEACLNQSLDALLSRDLIMKEDYELVETKPTRTSKVRQLLDTTDIQGEEFAKVIVQKLKDNKQMGLQ the figure was -0.259 ± 0.11; with QWIQSKREDIVNQMTEACLNQSLDALLSRDLIMKEDYELVATKPTRTSKVRQLLDTTDIQGEEFAKVIVQKLKDNKQMGLQ, -0.007 ± 0.064; with QWIQSKREDIVNQMTEACLNQSLDALLSRDLIMKEDYELVQTKPTRTSKVRQLLDTTDIQGEEFAKVIVQKLKDNKQMGLQ, 0.139 ± 0.076. For the variant QWIQSKREDIVNQMTEACLNQSLDALLSRDLIMKEDYELVGTKPTRTSKVRQLLDTTDIQGEEFAKVIVQKLKDNKQMGLQ, the abundance fitness was -0.295 ± 0.063. Turning to QWIQSKREDIVNQMTEACLNQSLDALLSRDLIMKEDYELVRTKPTRTSKVRQLLDTTDIQGEEFAKVIVQKLKDNKQMGLQ, the abundance fitness is 0.046 ± 0.046. With QWIQSKREDIVNQMTEACLNQSLDALLSRDLIMKEDYELVVTKPTRTSKVRQLLDTTDIQGEEFAKVIVQKLKDNKQMGLQ the figure was 0.11 ± 0.05. QWIQSKREDIVNQMTEACLNQSLDALLSRDLIMKEDYELVDTKPTRTSKVRQLLDTTDIQGEEFAKVIVQKLKDNKQMGLQ: the abundance fitness was -0.448 ± 0.098. With QWIQSKREDIVNQMTEACLNQSLDALLSRDLIMKEDYELVTTKPTRTSKVRQLLDTTDIQGEEFAKVIVQKLKDNKQMGLQ the figure was -0.004 ± 0.079; with QWIQSKREDIVNQMTEACLNQSLDALLSRDLIMKEDYELVNTKPTRTSKVRQLLDTTDIQGEEFAKVIVQKLKDNKQMGLQ, 0.094 ± 0.099; with QWIQSKREDIVNQMTEACLNQSLDALLSRDLIMKEDYELVLTKPTRTSKVRQLLDTTDIQGEEFAKVIVQKLKDNKQMGLQ, 0.069 ± 0.054.

As for QWIQSKREDIVNQMTEACLNQSLDALLSRDLIMKEDYELVCTKPTRTSKVRQLLDTTDIQGEEFAKVIVQKLKDNKQMGLQ, the abundance fitness is -0.042 ± 0.07. Under QWIQSKREDIVNQMTEACLNQSLDALLSRDLIMKEDYELVWTKPTRTSKVRQLLDTTDIQGEEFAKVIVQKLKDNKQMGLQ stands -0.466 ± 0.1; under QWIQSKREDIVNQMTEACLNQSLDALLSRDLIMKEDYELVITKPTRTSKVRQLLDTTDIQGEEFAKVIVQKLKDNKQMGLQ, 0.09 ± 0.11; under QWIQSKREDIVNQMTEACLNQSLDALLSRDLIMKEDYELVKTKPTRTSKVRQLLDTTDIQGEEFAKVIVQKLKDNKQMGLQ, 0.158 ± 0.12. Under QWIQSKREDIVNQMTEACLNQSLDALLSRDLIMKEDYELVPTKPTRTSKVRQLLDTTDIQGEEFAKVIVQKLKDNKQMGLQ stands -0.599 ± 0.085; under QWIQSKREDIVNQMTEACLNQSLDALLSRDLIMKEDYELVMTKPTRTSKVRQLLDTTDIQGEEFAKVIVQKLKDNKQMGLQ, 0.166 ± 0.047.

Take QWIQSKREDIVNQMTEACLNQSLDALLSRDLIMKEDYSLVSTKPTRTSKVRQLLDTTDIQGEEFAKVIVQKLKDNKQMGLQ: the abundance fitness was -0.375 ± 0.07. For the variant QWIQSKREDIVNQMTEACLNQSLDALLSRDLIMKEDYFLVSTKPTRTSKVRQLLDTTDIQGEEFAKVIVQKLKDNKQMGLQ, the abundance fitness is -0.221 ± 0.11. With QWIQSKREDIVNQMTEACLNQSLDALLSRDLIMKEDYRLVSTKPTRTSKVRQLLDTTDIQGEEFAKVIVQKLKDNKQMGLQ, the abundance fitness is -0.227 ± 0.072.

As to QWIQSKREDIVNQMTEACLNQSLDALLSRDLIMKEDYALVSTKPTRTSKVRQLLDTTDIQGEEFAKVIVQKLKDNKQMGLQ, the abundance fitness is -0.129 ± 0.075. As to QWIQSKREDIVNQMTEACLNQSLDALLSRDLIMKEDYILVSTKPTRTSKVRQLLDTTDIQGEEFAKVIVQKLKDNKQMGLQ, the abundance fitness amounted to 0.053 ± 0.15.

Regarding QWIQSKREDIVNQMTEACLNQSLDALLSRDLIMKEDYMLVSTKPTRTSKVRQLLDTTDIQGEEFAKVIVQKLKDNKQMGLQ, the abundance fitness is -0.088 ± 0.25.

Regarding QWIQSKREDIVNQMTEACLNQSLDALLSRDLIMKEDYVLVSTKPTRTSKVRQLLDTTDIQGEEFAKVIVQKLKDNKQMGLQ, the abundance fitness is -0.226 ± 0.1. Under QWIQSKREDIVNQMTEACLNQSLDALLSRDLIMKEDYLLVSTKPTRTSKVRQLLDTTDIQGEEFAKVIVQKLKDNKQMGLQ stands -0.075 ± 0.076; under QWIQSKREDIVNQMTEACLNQSLDALLSRDLIMKEDYTLVSTKPTRTSKVRQLLDTTDIQGEEFAKVIVQKLKDNKQMGLQ, -0.157 ± 0.076. Under QWIQSKREDIVNQMTEACLNQSLDALLSRDLIMKEDYYLVSTKPTRTSKVRQLLDTTDIQGEEFAKVIVQKLKDNKQMGLQ stands -0.237 ± 0.12; under QWIQSKREDIVNQMTEACLNQSLDALLSRDLIMKEDYQLVSTKPTRTSKVRQLLDTTDIQGEEFAKVIVQKLKDNKQMGLQ, -0.165 ± 0.12; under QWIQSKREDIVNQMTEACLNQSLDALLSRDLIMKEDYKLVSTKPTRTSKVRQLLDTTDIQGEEFAKVIVQKLKDNKQMGLQ, -0.216 ± 0.2. With QWIQSKREDIVNQMTEACLNQSLDALLSRDLIMKEDYGLVSTKPTRTSKVRQLLDTTDIQGEEFAKVIVQKLKDNKQMGLQ the figure was -0.509 ± 0.084; with QWIQSKREDIVNQMTEACLNQSLDALLSRDLIMKEDYCLVSTKPTRTSKVRQLLDTTDIQGEEFAKVIVQKLKDNKQMGLQ, -0.719 ± 0.13. In the case of QWIQSKREDIVNQMTEACLNQSLDALLSRDLIMKEDYHLVSTKPTRTSKVRQLLDTTDIQGEEFAKVIVQKLKDNKQMGLQ, the abundance fitness is -0.06 ± 0.13. Under QWIQSKREDIVNQMTEACLNQSLDALLSRDLIMKEDYWLVSTKPTRTSKVRQLLDTTDIQGEEFAKVIVQKLKDNKQMGLQ stands -0.12 ± 0.095; under QWIQSKREDIVNQMTEACLNQSLDALLSRDLIMKEDYNLVSTKPTRTSKVRQLLDTTDIQGEEFAKVIVQKLKDNKQMGLQ, -0.463 ± 0.13.

For the origin of these results see the Human Domainome abundance scans (Beltran et al. 2025).
